# Assay results reported in the DeepSol protein solubility set.
# Experiment: soluble on expression in E. coli; label from the status in PepcDB or PDB records
row,Sequence,soluble on expression in E. coli
1,MGSDKIHHHHHHMSIFFLNNGIMNILQEYSVLNAKVIIYEENGIGYYKVNEPNLDQNEIEILNSILEYIYSTPSVPNIEETVVKILKNKGISDQGIIEKIIYYLRKRIGYDELTVPLADPYVEEIECKGFSYPVTVVHRIVTRFPRLYTNIILEQEDHVLKVIEKLANKADKPVSIAKPYLEFSLPEGHRVAATVSREVSLPGSTFDIRKFPLKPISPISLIKNESISSLMLAYIWFLLDYKPFFLIIGSTGSGKTTLLNSILSMINPFFKVITIEDTPEINIIHDNWIRFFARQSISSQFEVSLMDLAKLSLRYRPDYLVIGEIRGKEIEALVHASASGHGSLATFHAGNPHEALTRLLSLLNKDVAKLFLQNLWGIIVLGTLRDRNGNIRRIIRSIYEIVYTRGKLRFRPVLRWSFSSNTFMPNNIDDLIKRSYRISYISKTYEIPISEITKEISNRVKTLNNFVSNNILDLEEFSVYLKKISQGDKVETKAI,not soluble
2,MGSDKIHHHHHHMSEQNWTDTGRFDNKAAEWDANAIRAALADAVARAIIAHMPVGKPANALEFGCGTGLVTTRIAPHCLQLTAVDSSREMLRMLGEKIAASAIANVTPLHLDFSRPEEAAGLDRDYDFVYSSMTLHHIPDTASFLRELIGHMSPGGALAIADLDAEDGLFHNDATEKVHHGFDRTELQALLESAGFAGVSFMTAHIIEKKNREGNLKNYPVFLVTAVKPKA,not soluble
3,MAHHHHHHMESPQVAELNEDIVELNKLLAQAVRENVKEKIKKCIENTTVEIAKLKLEESQTPNKITEKNTPLNDSNISYNSVQSFAWNQEGNKVTVFLTVKDIHTIDKEKISAEFNERNFEVKMHQVNKKNYRFCVKKLHEKIVPGKCSFKVKKDALHVYLIKQDQKYWDNLHFKESPMSKIRAPKMDEQAEPSTMLMNMMKQLYQEGDSDMKRTIAKAWCEANEKKSDFSVPNF,soluble
4,MDALTDSGSDPLLSAALGSPIHHAILSMDDEVDGNCDDVDDISPESHHDNHFIDFTDDLVVQTERNLSKKGRTSNRNARQGYDNYATLTNLQPLPPISTVTSKSTKVQRPSPSPNFYFPTSSNSSYDMKYEEEEDDCEGITHSSSSPSDFSNHGTDLNHPFSASSFDSFDVTTVSTTATSTIMNSTDKFIARIQEADSTTKSPKGTSPAALMHGHCEEDFDDGEELNTKELALQIAAELKRYSIPQAIFAERVLCRSQGTLSDLLRNPKPWSKLKSGRETFRRMAKWLEEPEFQRMSALRLAACKRKEEHTTPNSPQMVVPKKTRLVFSDIQRRTLQAIFRETKRPSREMQITISQQLNLDPTTVANFFMNARRRGHDLKQETSESEERSEEPSIHFEHSASSSSASSSSSSSMQLDNYICDINTINILEEPSPEPREIKYSMQLLENELDFPANILEP,not soluble
5,MNILQFNVRLAEGGAAGVALDLHQRALQQGLASHFVYGYGKGGKESVSHQNYPQVIKHTPRMTAMANIALFRLFNRDLFGNFNELYRTITRTAGPVVLHFHVLHSYWLNLKSVVRFCEKVKNHKPDVTLVWTLHDHWSVTGRCAFTDGCEGWKTGCQKCPTLNNYPPVKIDRAHQLVAGKRQLFREMLALGCQFISPSQHVADAFNSLYGPGRCRIINNGIDMATEAILADLPPVRETQGKPKIAVVAHDLRYDGKTNQQLVREMMALGDKIELHTFGKFSPFTAGNVVNHGFETDKRKLMSALNQMDALVFSSRVDNYPLILCEALSIGVPVIATHSDAAREVLQKSGGKTVSEEEVLQLVQLSKPEIAQAIFGTTLAEFSQRSRAAYSGQQMLEEYVNFYQNL,soluble
6,MRATVSGKTTTILPLLSKLIVIVIKSTSIHCSTLTSSGLFDSTAPRVFKNLVNYGGDMWFYMKPYPSNGKSGSQQMENVYQGLKSAQIKFSHITQHGISVQFFTSQSNWHSITNNNRSFSSYKLWWAHTNGAGNGGATSPNFEGFVSFGGWTSSSLVGKEYARQVQECGVTVNKYVYVK,not soluble
7,MRPGGYPKGVQARAWVEVDLAALWANYRLLAGRAGGEVIPVLKADAYGHGALPLARFLEGKGVGRFAVATLEEGRRLREGGIKGEVLLLGSLHPLEAEEALRLGLVPTLSNLEAAEALSQRARALGLVPRAHLKVDTGMNRVGFPSEEAVSALRAVEALGVRVEGVYTHLATAGEDAAFVETQRRRFQEVRRALGEGYFYHLENSLGLLRHGATAGVRVGLALYGLVPGFGLRPILRILARPTLVKRLKAGDRVGYGGVYVARGGEWLATLPVGYADGLPWGAVRFVKGPDGRLLEVAGRISMDQTTVLLPGPVGLEAVFEVLSADFGPTGLLAWAEARGTLPYEVAVHLSRRLPRRYLE,soluble
8,GELMPPQLQNGLNLSAKVVQGSLDSLPQAVREFLENNAELCQPDHIHICDGSEEENGRLLGQMEEEGILRRLKKYDNCWLALTDPRDVARIESKTVIVTQEQRDTVPIPKTGLSQLGRWMSEEDFEKAFNARFPGCMKGRTMYVIPFSMGPLGSPLSKIGIELTDSPYVVASMRIMTRMGTPVLEALGDGEFVKCLHSVGCPLPLQKPLVNNWPCNPELTLIAHLPDRREIISFGSGYGGNSLLGKKCFALRMASRLAKEEGWLAEHMLVLGITNPEGEKKYLAAAFPSACGKTNLAMMNPSLPGWKVECVGDDIAWMKFDAQGHLRAINPENGFFGVAPGTSVKTNPNAIKTIQKNTIFTNVAETSDGGVYWEGIDEPLASGVTITSWKNKEWSSEDGEPCAHPNSRFCTPASQCPIIDAAWESPEGVPIEGIIFGGRRPAGVPLVYEALSWQHGVFVGAAMRSEATAAAEHKGKIIMHDPFAMRPFFGYNFGKYLAHWLSMAQHPAAKLPKIFHVNWFRKDKEGKFLWPGFGENSRVLEWMFNRIDGKASTKLTPIGYIPKEDALNLKGLGHINMMELFSISKEFWDKEVEDIEKYLVDQVNADLPCEIEREILALKQRISQM,soluble
9,MIATKDIRIEKDFLGEKEVPSIAYYGVQTLRAVENFPITGYRIHPSLITAMAIVKKAAALANMDTGYLAKDIGHEIAEAAQEIVDGKFHDQFIVDPIQGGAGTSINMNTNEVIANRALERMGYEKGEYAKISPNTHVNMAQSTNDAFPTGIHIATLMRLEELLITMEELHAAFRAKAKEFDHVIKMGRTHLQDAVPIRLGQEFEAYSRVLARDIKRIKQSRQHLYEVNMGATAVGTGLNANPTYIEQVVKHLRTFSGFPLVGAEHLVDATQNTDAYTEVSAALKVCMMNMSKIANDLRIMASGPRVGLAEIQLPARQPGSSIMPGKVNPVMAEVINQVAFQVIGNDHTICLASEAGQLELNVMEPVLVFNLIQSISIMNNGFRVFREYCIKGITANEELLKQYVEKSVGIITAVNPHIGYEAASRIAREAIETGKSVRELCLEHGVLTEEELDIILDPFEMTHPEIAGASLLKDKKM,not soluble
10,MSENSNQFLDALKQMQGVEVGDIVDVEVLDVEDGQIDVGVENAGVEGVITRREYTSDRNADLRDLVKPGDKFKALVLRRAGGDKENGEFFFSVTRLKEREAFDKLQKDFEEGNAIEGTVTSSVRGGLLVDVGTRGFLPASLISNRYVSDLKPYIGKTMKLKITEIDPNKNRLILSHKDLVEEEREEAFDKVASQLVVGDVVEGKVSRLTNFGSFIDVGGVDGLVHISEISYKHVDKPSDVLKVGQDVKVKVIGIDNDRHRISLSIKQTEPSPFEQATADLNEGDIFEGEVKSLTNFGAFVEVADGIQGLVHVSEISNKHVDKPSDVLKVGQTVKVKVLNIDPNDRRISLSIKAADSNSSSSDNHNSRPRRSRNENTVNKKYMSDNDNGFALGDIIGDQLKDRKLEHHHHHH,soluble
11,MARPANTLQSLAELNGKAPSRRQLNIQHWNTAEGARVLFVEARELPMFDLRVTFAAGSSQDGGTPGLAALTNAMLNEGVAGKDVTAIAEGFEGLGADFGNGSYRDMAVASLRSLSAKDKREPALKLFTEVAGKPTFPEDALKRIKNQMLAGFEYEKQNPGKIAGKALFGKLYGDHPYAHPSDGTAESITGISLAQLRAFHAKAYTGGNAVIALVGDLSRAEAEAIAAQVSAGLPKGPALAAPAQPADAKAGLTHIDFPSKQTHLMLAELGIDRQDPDWPALSMGNQILGGGAFGTRLMSEVREKRGLTYGVYSVFSPMQVRGPFMINLQTRAELSEGTLKLVQGILADYLKTGPTQQELDDAKRELAGSFPLSNASNASIVGQLGAIGFYNLPLTWLEDFMQQSQALTVEQVKAAMNKHLSADKLVIVTVGPKVPQKPLEHHHHHH,not soluble
